Test results from the supplement of paper PMC10126150.
± gives the standard deviation of the averaged measurements.

Test system: ATP
Assay: switch fluorescence ratio, 500 uM ATP over buffer (Cy3 cluster intensity, sum of 5 cycles each) (fold (ratio)); higher = stronger signal-on switching upon ATP binding; sequences stand for … in TCGTCGGCAGCGTCAGATGTGTATAAGAGACAGTTTTTTTTTTTTTTTTTTTTTTTTT…TC
Conditions: aptamer strand: ATP DNA aptamer (quencher-CACCTGGGGGAGTATTGCGGAGGAAGG + anchor), 100 nM annealed; ATP concentration: 500 uM
Procedure, shortened: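 Between each of five buffer/ATP cycles, the flow-cell was stripped with NaOH and re-annealed. Each cycle imaged Cy3-labelled switching-strand clusters, annealed to 100 nM quencher-labelled ATP aptamer on a modified Illumina MiSeq flow-cell, first in selection buffer and then after 15 min with 500 uM ATP at 22 °C. The fluorescence ratio is summed target-cycle over summed buffer-cycle Cy3 intensity per cluster, averaged per switch-domain sequence, with clusters outside 100-1000 RFU excluded.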
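Also: ATP exposure 15 min at 22 °C before imaging.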

Row | Sequence | switch fluorescence ratio
1 | CAATAAAACA | 0.972 ± 0.013
2 | CAATAATTTG | 0.99184 ± 0.00043
3 | CAATAGGATG | 1.012 ± 0.0067
4 | CAATAGGCGC | 1.01 ± 0.021
5 | CAATAGGGGG | 1 ± 0.027
6 | CAATATAGGT | 0.967 ± 0.018
7 | CAATATATAC | 1.13 ± 0.043
8 | CAATATGCAG | 0.962 ± 0.012
9 | CAATATGTAT | 0.997 ± 0.063
10 | CAATATGTGC | 1.009 ± 0.004
11 | CAATCCTGGG | 0.989 ± 0.034
12 | CAATCTACGC | 1.11 ± 0.038
13 | CAATGAGTCT | 1.03 ± 0.035
14 | CAATGCACGG | 1.07 ± 0.0098
15 | CAATGCAGTG | 1 ± 0.019
16 | CAATGCGTTT | 0.998 ± 0.038
17 | CAATGGGCGT | 1.0067 ± 0.00057
18 | CAATGGTTCT | 0.993 ± 0.036
19 | CAATGTTATC | 1.01 ± 0.017
20 | CAATTCAGTT | 0.991 ± 0.024
21 | CAATTCTGTA | 0.997 ± 0.028
22 | CAATTGCTGG | 0.949 ± 0.035
23 | CAATTTAAGG | 0.997 ± 0.041
24 | CAATTTAGTC | 0.983 ± 0.022
25 | CAATTTCCCG | 1.01 ± 0.02

Row | Sequence | switch fluorescence ratio
26 | CAATTTGCTG | 0.94 ± 0.026
27 | CAATTTTCTT | 1.02 ± 0.025
28 | CAATTTTGGT | 1.01 ± 0.031
29 | CAATTTTTAA | 0.9798 ± 0.0088
30 | CAATTTTTCG | 1.02 ± 0.048
31 | CAATTTTTTT | 1.08 ± 0.12
32 | CACAAAAGCG | 1.01 ± 0.042
33 | CACAAAAGTG | 1.02 ± 0.02
34 | CACAAACAGA | 1.12 ± 0.036
35 | CACAACTTAA | 0.9867 ± 0.0023
36 | CACAATGCAG | 1 ± 0.033
37 | CACACAAATT | 1.18 ± 0.15
38 | CACACAGTCG | 1.09 ± 0.015
39 | CACAGGGGAC | 1.11 ± 0.05
40 | CACAGGGGGA | 2.67 ± 1.3
41 | CACAGGTGCG | 2.23 ± 0.08
42 | CACAGTGAAG | 0.985 ± 0.051
43 | CACAGTGTCA | 1.01 ± 0.027
44 | CACATGTAGC | 1.02 ± 0.041
45 | CACCATAGTG | 1.03 ± 0.02
46 | CACCATTAAT | 1.01 ± 0.017
47 | CACCCGGCGC | 1.17 ± 0.13
48 | CACCCGGGGT | 1.2099 ± 0.00019
49 | CACCCTACTA | 1.29 ± 0.018
50 | CACCGAGTTT | 0.987 ± 0.02

Row | Sequence | switch fluorescence ratio
51 | CACCGGAAAA | 1.09 ± 0.094
52 | CACCGGAAGG | 1.02 ± 0.024
53 | CACCGGGAAC | 1.56 ± 0.037
54 | CACCGGTTGG | 1.014 ± 0.0044
55 | CACCTTTATT | 1.018 ± 0.0096
56 | CACGAGAAGG | 1.03 ± 0.018
57 | CACGATTTGG | 0.995 ± 0.014
58 | CACGCATCAG | 1.137 ± 0.011
59 | CACGCGAGGA | 1.12 ± 0.12
60 | CACGCGTGGT | 0.996 ± 0.019
61 | CACGGAGGAG | 1.05 ± 0.055
62 | CACGGATTGC | 1.18 ± 0.039
63 | CACGGGGCGC | 0.977 ± 0.046
64 | CACGGGGGTG | 0.987 ± 0.03
65 | CACGGGGGTT | 1 ± 0.018
66 | CACGGGGTAC | 1.34 ± 0.016
67 | CACGGGGTCG | 1.036 ± 0.0027
68 | CACGTACTCC | 1.5 ± 0.097
69 | CACGTATCGG | 1.07 ± 0.029
70 | CACGTGATTG | 1.02 ± 0.02
71 | CACGTGTGTG | 0.961 ± 0.029
72 | CACGTGTTGC | 1.04 ± 0.03
73 | CACGTTTGGG | 1.01 ± 0.027
74 | CACTAACCCT | 1.148 ± 0.0044
75 | CACTAATGAG | 1.0254 ± 0.00028

Row | Sequence | switch fluorescence ratio
76 | CACTACGACT | 1.084 ± 0.0034
77 | CACTACGGCC | 1.04 ± 0.043
78 | CACTAGAAGC | 1.037 ± 0.0012
79 | CACTAGGCTT | 1 ± 0.045
80 | CACTAGTAGA | 1.03 ± 0.028
81 | CACTAGTGGG | 1 ± 0.0024
82 | CACTATGGTG | 1.05 ± 0.066
83 | CACTCATACT | 1.16 ± 0.029
84 | CACTCCCGGA | 1.15 ± 0.16
85 | CACTGAGCTG | 1.07 ± 0.077
86 | CACTGATGCC | 1.04 ± 0.019
87 | CACTGTAACG | 1.194 ± 0.0063
88 | CACTTCCTTT | 1.39 ± 0.51
89 | CACTTCTGAA | 0.987 ± 0.017
90 | CACTTCTTAT | 0.973 ± 0.021
91 | CACTTGACGT | 1.21 ± 0.034
92 | CACTTGGAAG | 1 ± 0.028
93 | CACTTTGGAT | 0.9914 ± 0.0032
94 | CAGAAAGAGC | 0.969 ± 0.0086
95 | CAGAAAGATA | 0.997 ± 0.018
96 | CAGAAGGATA | 1.03 ± 0.013
97 | CAGAATTGGG | 0.967 ± 0.028
98 | CAGACCCCAT | 1.06 ± 0.035
99 | CAGACGTTTT | 0.9917 ± 0.0094
100 | CAGACTCGGT | 1.02 ± 0.024
